Broadly, the Kd is the constant that tells how readily two partners part at equilibrium.

Assay [1] deals with T1, human TREM2 expressed on cells (human, UniProt Q9NZC2 19-230).
T1 construct: BW5147.G.1.4 cells stably expressing human TREM2 together with Dap12, or endogenous TREM2 of primary human myeloid cells; also called huT2 BW; hTREM2 expressing cell line
T1 sequence: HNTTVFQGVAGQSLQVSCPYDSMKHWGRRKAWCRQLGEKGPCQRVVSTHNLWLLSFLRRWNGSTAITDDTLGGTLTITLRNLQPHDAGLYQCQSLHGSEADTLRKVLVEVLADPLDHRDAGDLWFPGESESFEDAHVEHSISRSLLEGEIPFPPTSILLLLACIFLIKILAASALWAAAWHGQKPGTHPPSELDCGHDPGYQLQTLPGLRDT
The assay can be described thus: FACS, hTREM2 BW cells. In short, it runs like this:
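Cells were BW5147.G.1.4 stably expressing human TREM2 with Dap12, or human monocyte-derived dendritic cells differentiated 6 days with GM-CSF and IL-4. Antibodies bound 1 h on ice in PBS+2% FBS, then PE anti-human secondary 30 min on ice; flow cytometry read-out as mean fluorescence intensity.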
(Flow cytometry measures light scatter and fluorescence of single cells or particles in a stream.)

The target of assay [2] is T2, human TREM2 Fc fusion (entire TREM2 ECD; only one Fc arm fused to TREM2) (human, UniProt Q9NZC2 19-174).
T2 construct: also called huTREM2-Fc; recombinant hTREM2
T2 sequence: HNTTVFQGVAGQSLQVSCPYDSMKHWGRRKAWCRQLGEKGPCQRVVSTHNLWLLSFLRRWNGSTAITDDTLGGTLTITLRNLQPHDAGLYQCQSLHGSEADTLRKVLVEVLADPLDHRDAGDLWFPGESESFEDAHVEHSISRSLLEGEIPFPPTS
Description: BLI, IgG, avid. As to the method:
Briefly, IgGs were loaded on-line onto AHQ sensors, Sensors were equilibrated off-line in assay buffer for 30 minutes and then monitored on-line for 60 seconds for baseline establishment. For avid binding measurement, sensors with loaded IgGs were exposed to 100 nM antigen (human or cynomolgus monkey TREM2 Fe fusion using the entire TREM2 ECD; only one Fc arm was fused to TREM2) for 3 minutes, afterwards they were transferred to assay buffer for 3 minutes for off-rate measurement. Monovalent binding measurements were obtained by loading human TREM2 Fc fusion antigens to AHQ sensor and followed by exposure to 100 nM TREM2 antibody Fab. Kinetics data were fit using a 1:1 binding model in the data analysis software provided by ForteBio. Assay was run at room temperature (25° C.).

The target of assay [3] is T1, human TREM2 expressed on cells. Description: cell-based or functional assay.
Assay [4] deals with human TREM2/DAP12 fusion protein (human, UniProt O43914 41-113, limits assumed). The assay can be described thus: cell-based or functional assay.
Sequence of human TREM2/DAP12 fusion protein (O43914 other isoform, or with tags, fused parts or gaps limits assumed): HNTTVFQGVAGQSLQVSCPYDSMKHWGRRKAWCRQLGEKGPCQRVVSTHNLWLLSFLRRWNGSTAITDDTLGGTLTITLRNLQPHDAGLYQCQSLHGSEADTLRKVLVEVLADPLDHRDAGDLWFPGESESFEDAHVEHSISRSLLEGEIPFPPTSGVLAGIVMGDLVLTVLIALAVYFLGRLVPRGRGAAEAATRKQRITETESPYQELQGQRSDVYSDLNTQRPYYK
The target in assay [5] is T1, human TREM2 expressed on cells. Description: FACS, human DCs. An excerpt:
To examine cell binding of affinity matured anti-TREM2 antibodies, both primary human monocyte derived dendritic cells and recombinant, human TREM2 expressing cells were utilized. For the latter, BW5147.G.1.4 (ATCC® TIB48™) and HEK293T cells stably expressing human TREM2 together with Dap12 using viral infection were established. For primary human monocyte derived dendritic cells, human monocytes were isolated from whole blood using RosetteSep Human monocyte enrichment cocktail (Stemcell technologies) and Ficoll centrifugation per manufacturer protocols. After lysing red blood cells with ACK lysing buffer, monocytes were resuspended in complete media (RPMI, 10% FBS, Pen/Strep, L-glutamine, HEPES, non-essential amino acid, Sodium pyruvate) with 100 ng/ml human GM-CSF (hu-GMCSF) and, human IL-4 (hu-IL-4) to differentiate dendritic cells for 6 days.
Cells were harvested by trypsinization (Hek293T) or scraping (BW and dendritic cells), washed in PBS, counted and plated on 96-well U bottom plates at […] cells/well. The plates were spun at 1,400 rpm for 3 minutes and primary TREM2 or control antibodies were added in FACS buffer (PBS+2% FBS) and incubated on ice for one hour. Cells were subsequently centrifuged as before and washed thrice with FACS buffer. Cells were then incubated with anti-human PE conjugated secondary antibody (BD Biosciences) in FACS buffer for 30 minutes on ice. Cells were again washed thrice with FACS buffer and analyzed on a BD FACS Canto or an Intellicyt Flow Cytometer. Binding was measured as mean fluorescence intensity in the APC channel.

The target in assay [6] is T2, human TREM2 Fc fusion (entire TREM2 …). The assay can be described thus: BLI, Fab, monovalent.
Assay [7] deals with T3, cynomolgus monkey TREM2 Fc fusion (entire TREM2 ECD; only one Fc arm fused to TREM2) (cynomolgus monkey, UniProt Q9NZC2 19-174 (human entry)).
T3 construct: also called cyno TREM2-Fc
T3 chain: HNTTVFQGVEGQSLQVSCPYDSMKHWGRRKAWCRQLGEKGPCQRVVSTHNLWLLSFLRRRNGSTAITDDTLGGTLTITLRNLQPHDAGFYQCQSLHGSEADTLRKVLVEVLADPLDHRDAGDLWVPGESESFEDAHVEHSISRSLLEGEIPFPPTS
The assay can be described thus: BLI, Fab, monovalent.

B1: AL2p-8 (antibody, V domains shown)
VH: QVQLVQSGAEVKKPGSSVKVSCKASGYAFSLSWMNWVRQAPGQGLEWMGRIYPGDGDTNYARKFQGRVTITADESTSTAYMELSSLRSEDTAVYYCARLLRNQPGSSYAMDYWGQGTLVTVSS
VL: GVVMTQTPLSLSVTPGQPASISCRSSQSLIHSNGYTYLHWYLQKPGQSPQLLIYKVSNRRSGVPDRFSGSGSGTDFTLKISRVEAEDVGVYYCSQSTRVPYTFGQGTKLEIK
notes: Fab and IgG formats under one id
Regarding B1, the Kd worked out at 1.2 nM in assay [1], 0.3 nM in assay [2], 4.01 nM in assay [6] and 3.1 nM in assay [7]. In addition, the “Survival huDCs plate bound IgG, AUC” value in assay [3] is 1.09e+06 AUC. The “Luciferase activation soluble 10 nM IgG, FOC” value in assay [4] turned out to be 2.78 FOC. The MFI in assay [5] was determined as 310 MFI.

B2: AL2p-15 (antibody, V domains shown)
VH: QVQLVQSGAEVKKPGSSVKVSCKASGYAFSSHWMNWVRQAPGQGLEWMGRIYPGDGDTNYAQKFQGRVTITADESTSTAYMELSSLRSEDTAVYYCARLLRNQPGESYAMDYWGQGTLVTVSS
VL: GVVMTQTPLSLSVTPGQPASISCRSSSSLVHSNGYTYLHWYLQKPGQSPQLLIYKVSNRKSGVPDRFSGSGSGTDFTLKISRVEAEDVGVYYCSQSTRVPYTFGQGTKLEIK
notes: as for B1
For B2, the equilibrium dissociation constant (Kd) in assay [1] was found to be 2.2 nM; in assay [2], 0.538 nM; in assay [6], 8.85 nM; in assay [7] it was 8.76 nM. Further, the “Survival huDCs plate bound IgG, AUC” value in assay [3] was determined as 488000 AUC. Further, in assay [4], the “Luciferase activation plate bound 33 nM IgG, FOC” value is 7.54 FOC. Moreover, the “Luciferase activation soluble 10 nM IgG, FOC” value in assay [4] was found to be 1.8 FOC. In assay [5], this molecule came in with an MFI of 262 MFI.

B3: AL2p-26 (antibody, V domains shown)
VH: QVQLVQSGAEVKKPGSSVKVSCKASGYAFSSHWMNWVRQAPGQGLEWMGRIYPGGGDTNYAQKRQGRVTITADESTSTAYMELSSLRSEDTAVYYCARLLRNQPGESYAMDYWGQGTLVTVSS
VL: GVVMTQTPLSLSVTPGQPASISCRSSQSLIHSNGYTYLHWYLQKPGQSPQLLIYKVSNRRSGVPDRFSGSGSGTDFTLKISRVEAEDVGVYYCSQSTRVPYTFGQGTKLEIK
notes: as for B1
As for B3, the Kd was 1.1 nM in assay [1], 0.201 nM in assay [2], 3.15 nM in assay [6] and 2.69 nM in assay [7]. In assay [3], the “Survival huDCs plate bound IgG, AUC” value turned out to be 1.11e+06 AUC. The “Luciferase activation plate bound 33 nM IgG, FOC” value in assay [4] was 25.9 FOC. Further, in assay [4], the “Luciferase activation soluble 10 nM IgG, FOC” value turned out to be 2.59 FOC. For the same molecule, the MFI in assay [5] amounted to 296 MFI.

B4: AL2p-16 (antibody, V domains shown)
VH: QVQLVQSGAEVKKPGSSVKVSCKASGYAFSSHWMNWVRQAPGQGLEWMGRIYPGDGDTNYAQKFRGRVTITADESTSTAYMELSSLRSEDTAVYYCARLLRNQPGASYAMDYWGQGTLVTVSS
VL: GVVMTQTPLSLSVTPGQPASISCRTSQSLVHSNGYTYLHWYLQKPGQSPQLLIYKVSNRVSGVPDRFSGSGSGTDFTLKISRVEAEDVGVYYCSQSTRVPYTFGQGTKLEIK
notes: as for B1
For B4, the dissociation constant Kd in assay [1] was found to be 1.2 nM; in assay [2], 0.222 nM; in assay [6], 1.83 nM; in assay [7] it was 1.36 nM. The “Survival huDCs plate bound IgG, AUC” value in assay [3] worked out at 880000 AUC. In addition, in assay [4], the “Luciferase activation plate bound 33 nM IgG, FOC” value was 16.9 FOC. The “Luciferase activation soluble 10 nM IgG, FOC” value in assay [4] was 2.6 FOC. In assay [5], this molecule displayed an MFI of 327 MFI.

B5: AL2p-23 (antibody, V domains shown)
VH: QVQLVQSGAEVKKPGSSVKVSCKASGYAFSSHWMNWVRQAPGQGLEWMGRIYPGDGQTNYAQKRQGRVTITADESTSTAYMELSSLRSEDTAVYYCARLLRNQPGESYAMDYWGQGTLVTVSS
VL: GVVMTQTPLSLSVTPGQPASISCRTSQSLVHSNGYTYLHWYLQKPGQSPQLLIYKVSNRVSGVPDRFSGSGSGTDFTLKISRVEAEDVGVYYCSQSTRVPYTFGQGTKLEIK
notes: as for B1
As for B5, the equilibrium dissociation constant (Kd) in assay [1] amounted to 1.2 nM; in assay [2], 0.334 nM; in assay [6] it was 4.35 nM; in assay [7], 4.16 nM. The “Survival huDCs plate bound IgG, AUC” value in assay [3] was 1.11e+06 AUC. Moreover, the “Luciferase activation plate bound 33 nM IgG, FOC” value in assay [4] was determined as 29.8 FOC. The “Luciferase activation soluble 10 nM IgG, FOC” value in assay [4] is 2.53 FOC.

B6: AL2p-35 (antibody, V domains shown)
VH: QVQLVQSGAEVKKPGASVKVSCKASGYAFWSSWMNWVRQAPGQRLEWIGRIYPGDGDTNYAQKFQGRVTITADTSASTAYMELSSLRSEDTAVYYCARLLRNQPGESYAHDYWGQGTLVTVSS
VL: DVVMTQSPDSLAVSLGERATINCRSSQSLVHSNGYTYLHWYQQKPGQSPKLLIYKVSNRFSGVPDRFSGSGSGTDFTLTISSLQAEDVAVYYCSQSTRVPYTFGGGTKVEIK
notes: as for B1
For B6, the Kd in assay [1] was 3.6 nM; in assay [2] it was 1.85 nM; in assay [6] it was 28.4 nM; in assay [7], 24.6 nM. For the same molecule, the “Survival huDCs plate bound IgG, AUC” value in assay [3] came to 453000 AUC. Further, in assay [4], the “Luciferase activation plate bound 33 nM IgG, FOC” value was determined as 5.15 FOC. The “Luciferase activation soluble 10 nM IgG, FOC” value in assay [4] turned out to be 2.05 FOC. This molecule yielded an MFI in assay [5] of 130 MFI.

B7: AL2p-9 (antibody, V domains shown)
VH: QVQLVQSGAEVKKPGSSVKVSCKASGYAFSRSWMNWVRQAPGQGLEWMGRIYPGDGDTNYAQKFQGRVTITADESTSTAYMELSSLRSEDTAVYYCARLLRNQPGASYAMDYWGQGTLVTVSS
VL: GVVMTQTPLSLSVTPGQPASISCRTSQSLVHSNGYTYLHWYLQKPGQSPQLLIYKVSNRVSGVPDRFSGSGSGTDFTLKISRVEAEDVGVYYCSQSTRVPYTFGQGTKLEIK
notes: as for B1
Regarding B7, the dissociation constant (Kd) stood at 1.1 nM in assay [1], 0.349 nM in assay [2], 6.44 nM in assay [6] and 5.63 nM in assay [7]. The “Survival huDCs plate bound IgG, AUC” value in assay [3] is 976000 AUC. Besides, the “Luciferase activation plate bound 33 nM IgG, FOC” value in assay [4] came out at 15.2 FOC. In assay [4], the “Luciferase activation soluble 10 nM IgG, FOC” value came out at 2.62 FOC. In assay [5], the MFI was 322 MFI.

B8: AL2p-29 (antibody, V domains shown)
VH: QVQLVQSGAEVKKPGSSVKVSCKASGYAFSSQWMNWVRQAPGQGLEWMGRIYPGDGDTNYAQKFQGRVTITADESTSTAYMELSSLRSEDTAVYYCARLLRNQPGESYAMDYWGQGTLVTVSS
VL: GVVMTQTPLSLSVTPGQPASISCRSSRSLVHSNGYTYLHWYLQKPGQSPQLLIYKVSNRFSGVPDRFSGSGSGTDFTLKISRVEAEDVGVYYCSQSTRVPYTFGQGTKLEIK
notes: as for B1
For B8, the Kd in assay [1] was found to be 1.3 nM; in assay [2] it was 0.403 nM; in assay [6], 6.38 nM; in assay [7], 6.47 nM. The “Survival huDCs plate bound IgG, AUC” value in assay [3] amounted to 1.11e+06 AUC. Besides, the “Luciferase activation plate bound 33 nM IgG, FOC” value in assay [4] came to 26.6 FOC. Further, the “Luciferase activation soluble 10 nM IgG, FOC” value in assay [4] was 2.17 FOC.

Source of the values: patent publication US20200317776A1 (published 2020).
